Measured values as given in patent US20120251557A1 (VERENIGING VOOR CHRISTELIJK HOGER ONDERWIJS …, published 2012).

Experiments:
[1] = target: CD45 on human peripheral blood lymphocytes (PBL) (human) (UniProt P08575); experiment: cell-based or functional assay
[2] = target: human CD45ABC isoform in transfected murine 300-19 cells (human) (UniProt P08575); experiment: ELISA: isoform pulled down from transfectant lysate with panCD45 antibody, probed with MGL-Fc; ++ = high binding (OD 450 nm >0.25)
[3] = target: human CD45AB isoform in transfected murine 300-19 cells (human) (UniProt P08575); experiment: as above
[4] = target: human CD45BC isoform in transfected murine 300-19 cells (human) (UniProt P08575); experiment: as above
[5] = target: human CD45B isoform in transfected murine 300-19 cells (human) (UniProt P08575); experiment: as above
[6] = target: A-containing CD45 isoforms from PBL (detected with anti-CD45RA); experiment: ELISA: MGL-Fc-coated plate captures ligands from PBL lysate, detection with anti-CD45RA; + = low binding (OD 450 nm <0.25)
[7] = target: CD45 on human peripheral blood lymphocytes (PBL) (human) (UniProt P08575); experiment: ELISA: MGL-Fc-coated plate captures ligands from PBL lysate, detection with panCD45 antibody; ++ = high binding (OD 450 nm >0.25)
[8] = target: C-containing CD45 isoforms from PBL (detected with anti-CD45RC); experiment: ELISA: MGL-Fc-coated plate captures ligands from PBL lysate, detection with anti-CD45RC; ++ = high binding (OD 450 nm >0.25)
[9] = target: B-containing CD45 isoforms from PBL (detected with anti-CD45RB); experiment: ELISA: MGL-Fc-coated plate captures ligands from PBL lysate, detection with anti-CD45RB; ++ = high binding (OD 450 nm >0.25)
[10] = target: T1, secreted tumor-associated MUC1 from the supernatant of ZR75 tumor cells (UniProt P15941 24-1097, limits assumed); experiment: ELISA on coated MUC1 from ZR75 supernatant
T1 construct: Coated on ELISA plates, or loaded on beads through MUC1 antibodies; also called secreted MUC1 from tumor cell line ZR75
Excerpt: Example 2, FIG. 8. MGL-Fc detects secreted MUC1 from tumor cell line ZR75. FIG. 8A, MUC1 was harvested out of the supernatant of cultured ZR75 tumor cells and coated on ELISA plates. Both MGLFc and DC-SIGNFc were used to look for carbohydrate-binding epitopes expressed on tumor-associated MUC1. […] Furthermore, EGTA, which inhibits lectin binding to carbohydrates, illustrates that the recognition of MGL to MUC1 is carbohydrate mediated. FIG. 8B, in a second experiment, the tumor-associated MUC1 were coated on fluorescent beads coupled with MUC1 antibodies. Fluorescent MUC1-coupled beads were added to MGL-expressing CHO cells and untransfected CHO cells.
This experiment is depicted in FIG. 8 of Example 2. In FIG. 8A, MUC1 was harvested out of the supernatant of cultured ZR75 tumor cells and coated on ELISA plates. Both MGLFc and DC-SIGNFc were used to look for carbohydrate-binding epitopes expressed on tumor-associated MUC1. […] Furthermore, EGTA, which inhibits lectin binding to carbohydrates, illustrates that the recognition of MGL to MUC1 is mediated by the expression of carbohydrates.

Chain of CD45 on human peripheral blood lymphocytes (PBL) (human) (P08575 26-1306): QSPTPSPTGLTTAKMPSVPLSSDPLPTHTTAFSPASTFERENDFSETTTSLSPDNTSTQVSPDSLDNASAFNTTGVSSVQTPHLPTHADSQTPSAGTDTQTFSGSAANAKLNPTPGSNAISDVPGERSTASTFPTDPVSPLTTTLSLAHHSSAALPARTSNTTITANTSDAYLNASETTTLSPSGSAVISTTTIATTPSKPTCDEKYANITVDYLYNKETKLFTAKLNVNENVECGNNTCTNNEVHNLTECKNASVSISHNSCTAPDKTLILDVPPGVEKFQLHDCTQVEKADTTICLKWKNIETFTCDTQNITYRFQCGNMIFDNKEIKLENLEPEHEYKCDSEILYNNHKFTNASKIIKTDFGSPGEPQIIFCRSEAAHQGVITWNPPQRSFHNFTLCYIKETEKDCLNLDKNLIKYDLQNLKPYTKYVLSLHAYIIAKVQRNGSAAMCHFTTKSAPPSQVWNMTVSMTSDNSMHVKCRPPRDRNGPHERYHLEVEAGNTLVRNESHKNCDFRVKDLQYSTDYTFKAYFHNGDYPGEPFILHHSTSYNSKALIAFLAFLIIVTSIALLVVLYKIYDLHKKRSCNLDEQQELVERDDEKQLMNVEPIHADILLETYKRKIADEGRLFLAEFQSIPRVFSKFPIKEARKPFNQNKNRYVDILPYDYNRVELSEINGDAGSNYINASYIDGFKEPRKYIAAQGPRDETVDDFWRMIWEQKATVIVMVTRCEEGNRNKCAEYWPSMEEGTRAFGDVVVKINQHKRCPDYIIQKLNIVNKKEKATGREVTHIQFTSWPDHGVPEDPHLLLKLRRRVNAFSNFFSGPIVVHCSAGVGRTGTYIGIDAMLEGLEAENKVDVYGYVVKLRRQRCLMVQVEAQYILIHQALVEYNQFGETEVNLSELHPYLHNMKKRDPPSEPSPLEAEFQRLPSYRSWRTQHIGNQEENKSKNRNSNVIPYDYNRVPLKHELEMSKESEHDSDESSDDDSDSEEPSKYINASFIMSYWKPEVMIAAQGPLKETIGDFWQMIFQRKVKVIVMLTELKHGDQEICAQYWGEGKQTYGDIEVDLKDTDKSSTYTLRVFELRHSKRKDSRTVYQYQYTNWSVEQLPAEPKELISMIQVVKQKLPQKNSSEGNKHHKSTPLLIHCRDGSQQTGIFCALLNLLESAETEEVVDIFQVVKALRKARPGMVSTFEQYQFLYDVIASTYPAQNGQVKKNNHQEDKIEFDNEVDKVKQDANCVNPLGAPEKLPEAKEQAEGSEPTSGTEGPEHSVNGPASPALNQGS
T1 sequence (P15941 24-1097 limits assumed): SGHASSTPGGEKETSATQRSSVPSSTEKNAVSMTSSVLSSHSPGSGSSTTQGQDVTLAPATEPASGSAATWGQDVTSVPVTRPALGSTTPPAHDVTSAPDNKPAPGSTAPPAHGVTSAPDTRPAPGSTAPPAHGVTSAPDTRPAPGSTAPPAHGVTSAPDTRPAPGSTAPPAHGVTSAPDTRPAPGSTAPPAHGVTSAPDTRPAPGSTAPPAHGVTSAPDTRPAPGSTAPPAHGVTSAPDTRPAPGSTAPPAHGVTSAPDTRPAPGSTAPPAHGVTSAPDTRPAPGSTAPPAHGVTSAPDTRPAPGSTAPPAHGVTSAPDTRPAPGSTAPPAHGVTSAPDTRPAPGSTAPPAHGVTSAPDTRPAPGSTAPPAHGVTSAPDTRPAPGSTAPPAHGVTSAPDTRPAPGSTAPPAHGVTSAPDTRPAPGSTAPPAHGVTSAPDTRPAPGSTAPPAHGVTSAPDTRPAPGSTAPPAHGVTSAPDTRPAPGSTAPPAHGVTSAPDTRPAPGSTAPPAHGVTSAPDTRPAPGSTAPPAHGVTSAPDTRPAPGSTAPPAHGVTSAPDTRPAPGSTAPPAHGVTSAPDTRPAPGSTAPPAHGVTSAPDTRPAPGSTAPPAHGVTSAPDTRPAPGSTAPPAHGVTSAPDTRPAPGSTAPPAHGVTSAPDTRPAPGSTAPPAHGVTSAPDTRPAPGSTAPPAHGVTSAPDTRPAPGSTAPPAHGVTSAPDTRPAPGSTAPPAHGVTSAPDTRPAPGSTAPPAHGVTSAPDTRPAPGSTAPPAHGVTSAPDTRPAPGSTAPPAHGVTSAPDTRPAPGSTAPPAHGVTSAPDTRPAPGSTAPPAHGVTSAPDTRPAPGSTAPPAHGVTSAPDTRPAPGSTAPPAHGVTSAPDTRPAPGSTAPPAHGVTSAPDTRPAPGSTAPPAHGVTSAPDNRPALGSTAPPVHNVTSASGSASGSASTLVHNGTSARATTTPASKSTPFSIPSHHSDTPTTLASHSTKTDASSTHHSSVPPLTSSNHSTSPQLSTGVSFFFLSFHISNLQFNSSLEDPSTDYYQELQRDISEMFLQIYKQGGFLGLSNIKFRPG
Chain of human CD45ABC isoform in transfected murine 300-19 cells (human) (P08575 26-1306): as the sequence (P08575 26-1306) above

Macrophage galactose-type lectin (MGL) on cells (CHO-MGL transfectants, monocyte-derived dendritic cells, dexamethasone-treated APC) (from UniProt Q8IUN9 1-316) (receptor)
proliferation of allogeneic CD4+ T cells ([methyl-3H]thymidine) in co-culture with dexamethasone-treated APC, with or without blocking anti-MGL antibodies [1]: 3 fold

MGL-Fc (extracellular part of human MGL, amino acids 61-289, fused at the C-terminus to human IgG1-Fc) (from UniProt Q8IUN9 61-289; P01857 99-330) (Fc fusion)
OD 450 nm [2]: > 0.25 od | OD 450 nm [3]: > 0.25 od | OD 450 nm [4]: > 0.25 od | OD 450 nm [5]: > 0.25 od | OD 450 nm [6]: < 0.25 od | OD 450 nm [7]: > 0.25 od | OD 450 nm [8]: > 0.25 od | OD 450 nm [9]: > 0.25 od

B1: DC-SIGN-Fc (Fc fusion, UniProt Q9NNX6 64-404, looked up)
chain: PSSISQEQSRQDAIYQNLTQLKAAVGELSEKSKLQEIYQELTQLKAAVGELPEKSKLQEIYQELTRLKAAVGELPEKSKLQEIYQELTWLKAAVGELPEKSKMQEIYQELTRLKAAVGELPEKSKQQEIYQELTRLKAAVGELPEKSKQQEIYQELTRLKAAVGELPEKSKQQEIYQELTQLKAAVERLCHPCPWEWTFFQGNCYFMSNSQRNWHDSITACKEVGAQLVVIKSAEEQNFLQLQSSRSNRFTWMGLSDLNQEGTWQWVDGSPLLPSFKQYWNRGEPNNVGEEDCAEFSGNGWNDDKCNLAKFWICKKSAASCSRDEEQFLSPAPATPNPPPA
notes: not shown: Fc part not described
binding result [10]: no binding
